We go through one molecule from publication PMC12637021, “Talin–tensin3 interactions regulate fibrillar adhesion formation and tensin3 phase separation” (The Journal of Cell Biology, 2025).

One data set concerns TNS3KO cells. As to the kind of experiment: FN fibrils, rescue of TNS3KO cells. The class given is cell-based, human. The settings on record: vs TNS3-WT; IST9 antibody; 40 × 40 μm squares; n = 56 (WT) and 54 (L702E) cells. On the procedure:
(§1) Cells were fixed in 4% paraformaldehyde (PFA, Sigma-Aldrich), which had been prewarmed to 37°C for 15 min before being washed three times with PBS. For immunofluorescence staining, cells were permeabilized with 0.5% Triton X-100 (Sigma-Aldrich) at room temperature for 5 min before being washed three times with PBS. Blebbistatin (Tocris Bioscience) was diluted in dimethyl sulfoxide (Sigma-Aldrich) and used at a final concentration of 50 μM. […]
To analyze the FN fibrils, the images were background-subtracted (rolling ball), before 40 × 40 μm square boxes were applied for particle analysis to count FN fibrils larger than 0.2 μm^2. The FN coverage was calculated by dividing the area covered by FN fibrils by the total area of the box (1,600 μm^2).

The next data set has as its system U2OS TNS3KO cells. As to the kind of experiment: adhesion stability under blebbistatin, U2OS TNS3KO cells. The settings on record: blebbistatin 50 µM. In kind it is cell-based, human. On the procedure: (§2) Cells were fixed in 4% paraformaldehyde (PFA, Sigma-Aldrich), which had been prewarmed to 37°C for 15 min before being washed three times with PBS. For immunofluorescence staining, cells were permeabilized with 0.5% Triton X-100 (Sigma-Aldrich) at room temperature for 5 min before being washed three times with PBS. Blebbistatin (Tocris Bioscience) was diluted in dimethyl sulfoxide (Sigma-Aldrich) and used at a final concentration of 50 μM. The following primary antibodies were diluted in 1% bovine serum albumin (BSA, Sigma-Aldrich): mouse anti-α5 integrin (SNAKA51, 1:100, NBP2-50146; Novus Biologicals), rat anti-β1 integrin (9EG7, 1:200; 553715; BD Biosciences), mouse anti-FN (IST-9, 1:100, ab6328; Abcam), rabbit anti-tensin3 (1:200, HPA055338; Atlas), mouse anti-EEA1 (1:500, 68065-1-IG; Proteintech), mouse anti-LAMP1 (1:200, ab320851; Abcam), mouse anti-paxillin (349, 1:400, mab3060; Sigma-Aldrich), rabbit anti-talin1 (1:200, 82856-4-RR; Proteintech), mouse anti-vinculin (hVin1, 1:500, V9264; Sigma-Aldrich), rabbit anti-KANK2 (1:100, HPA015643; Sigma-Aldrich), rabbit anti-kindlin2 (1:100, 11453-1-AP; Proteintech), rabbit anti-GIT1 (1:200, 26247-1-AP; Proteintech), mouse anti-phosphotyrosine (4G10, 1:200, 05-321X; Sigma-Aldrich), rabbit anti-G3BP1 (1:600, 13057-2-AP; Proteintech), rabbit anti-TDP43 (1:400, 10782-2-AP; Proteintech), and rabbit anti-GIGYF1 (1:400, ab121784; Abcam). […]
(§3) Analysis of cell adhesion sites, FN fibrils, and LLPS condensates was performed using FIJI/ImageJ (version 1.54f) software ([Schindelin et al., 2012]). […] Prior to adhesion quantification, the images were background-subtracted using a rolling ball algorithm, followed by thresholding of adhesion sites and Analyse Particles functions in FIJI/ImageJ to quantify adhesions. Adhesion sites with sizes between 0.4 and 10 μm^2 were counted, except for adhesions in blebbistatin-treated cells, which were counted with sizes between 0.2 and 4 μm^2. […]

In data set [1] the test system is NIH3T3 cells. The experiment in a line: adhesion stability under blebbistatin, NIH3T3 cells. The class given is cell-based, mouse. The note with it: blebbistatin 50 µM, 60 min; n = 64 (WT), 49 (L702E), 62 (ΔPTB), 71 (Cterm) cells. On the procedure: as §1, §3
In data set [2] the test system is NIH3T3 cells. As to the kind of experiment: client protein recruitment to tensin3 condensates. The class given is cell-based, mouse. The note with it: TNS3-L702E condensates.
Description: Since the observed tensin3 condensates were derived from adhesion sites in a talin-regulated mechanosensitive manner, we wondered whether these condensates contain other adhesion components or signaling molecules. To address this question, we examined a selection of cell–matrix adhesion proteins that have been reported by others to be present in LLPS condensates. These proteins include LIMD1 ([Wang et al., 2021]), kindlin2 ([Hsu et al., 2023]), talin ([Hsu et al., 2023]; [Litschel et al., 2024]), KANK ([Guo et al., 2023]), tensin1 ([Lee et al., 2023]), vinculin ([Litschel et al., 2024]), and GIT1 ([Zhu et al., 2020]). We added the actin regulatory RhoGAP DLC1 to this selection, as it is known to bind tensin ([Liao et al., 2006]; [Shih et al., 2015]), and the RNA regulatory protein GIGYF1, which we had previously identified alongside many of the aforementioned proteins in tensin BioID datasets ([Atherton et al., 2022]). We also added stress granule components G3BP1 ([Tourrière et al., […]]) and TDP-43 ([Colombrita et al., 2009]). These proteins were either co-expressed as fluorescently tagged proteins (Fig. S4 I) or, where antibodies were available, probed endogenously in cells that formed GFP-TNS3 condensates (Fig. 8 A).
as §2

B1: TNS3-L702E: tensin3 carrying the L702E point mutation that blocks the interaction with talin (protein, UniProt Q68CZ2 1-1445, looked up, variant L702E)
Tensin-3: MEEGHGLDLTYITERIIAVSFPAGCSEESYLHNLQEVTRMLKSKHGDNYLVLNLSEKRYDLTKLNPKIMDVGWPELHAPPLDKMCTICKAQESWLNSNLQHVVVIHCRGGKGRIGVVISSYMHFTNVSASADQALDRFAMKKFYDDKVSALMQPSQKRYVQFLSGLLSGSVKMNASPLFLHFVILHGTPNFDTGGVCRPFLKLYQAMQPVYTSGIYNVGPENPSRICIVIEPAQLLKGDVMVKCYHKKYRSATRDVIFRLQFHTGAVQGYGLVFGKEDLDNASKDDRFPDYGKVELVFSATPEKIQGSEHLYNDHGVIVDYNTTDPLIRWDSYENLSADGEVLHTQGPVDGSLYAKVRKKSSSDPGIPGGPQAIPATNSPDHSDHTLSVSSDSGHSTASARTDKTEERLAPGTRRGLSAQEKAELDQLLSGFGLEDPGSSLKEMTDARSKYSGTRHVVPAQVHVNGDAALKDRETDILDDEMPHHDLHSVDSLGTLSSSEGPQSAHLGPFTCHKSSQNSLLSDGFGSNVGEDPQGTLVPDLGLGMDGPYERERTFGSREPKQPQPLLRKPSVSAQMQAYGQSSYSTQTWVRQQQMVVAHQYSFAPDGEARLVSRCPADNPGLVQAQPRVPLTPTRGTSSRVAVQRGVGSGPHPPDTQQPSPSKAFKPRFPGDQVVNGAGPELSTGPSPGSPTLDIDQSIEQENRLILELDPTFEPIPTHMNALGSQANGSVSPDSVGGGLRASSRLPDTGEGPSRATGRQGSSAEQPLGGRLRKLSLGQYDNDAGGQLPFSKCAWGKAGVDYAPNLPPFPSPADVKETMTPGYPQDLDIIDGRILSSKESMCSTPAFPVSPETPYVKTALRHPPFSPPEPPLSSPASQHKGGREPRSCPETLTHAVGMSESPIGPKSTMLRADASSTPSFQQAFASSCTISSNGPGQRRESSSSAERQWVESSPKPMVSLLGSGRPTGSPLSAEFSGTRKDSPVLSCFPPSELQAPFHSHELSLAEPPDSLAPPSSQAFLGFGTAPVGSGLPPEEDLGALLANSHGASPTPSIPLTATGAADNGFLSHNFLTVAPGHSSHHSPGLQGQGVTLPGQPPLPEKKRASEGDRSLGSVSPSSSGFSSPHSGSTISIPFPNVLPDFSKASEAASPLPDSPGDKLVIVKFVQDTSKFWYKADISREQAIAMLKDKEPGSFIVRDSHSFRGAYGLAMKVATPPPSVLQLNKKAGDLANELVRHFLIECTPKGVRLKGCSNEPYFGSLTALVCQHSITPLALPCKLLIPERDPLEEIAESSPQTAANSAAELLKQGAACNVWYLNSVEMESLTGHQAIQKALSITLVQEPPPVSTVVHFKVSAQGITLTDNQRKLFFRRHYPVNSVIFCALDPQDRKWIKDGPSSKVFGFVARKQGSATDNVCHLFAEHDPEQPASAIVNFVSKVMIGSPKKV
modifications: mCherry or GFP tag
As for B1, the “fewer FN fibrils” value with TNS3KO cells is on record as “over 70%”. In the data set on U2OS TNS3KO cells, the “subcellular localization of construct under blebbistatin” value is listed as “almost exclusively found in the LLPS condensates in the cytoplasm”. Also, the “construct-positive adhesions after blebbistatin” value in the data set on NIH3T3 cells [1] is “mostly disappear”. Moreover, in the data set on NIH3T3 cells [2], the “localization of talin1/2, KANK1/2 and vinculin into condensates” value is “failed to localize into the tensin3 condensates”; the “presence of tensin1, LIMD1, DLC1, and GIGYF1 in condensates” value is reported as “remained present”.
